Data taken from patent publication US20190032049.

Assays:
[1] = tested on: tetR:DNMT3A (tetR:D3A) (Escherichia coli); experiment: cell_activity; details: no doxycycline, stable expression, slower kinetics
[2] = tested on: tetR:KRAB (tetR:K) (Escherichia coli); experiment: cell_activity; details: no doxycycline, stable expression, AAVS1/TetO7 K562

Substance: TetO7 (seven tandem TetO repeats)
- activity (% eGFP-negative cells) [1]: 100
- activity (% eGFP-negative cells) [2]: 100
